Values of other authors, collected in patent US20230301999A1, “METHODS OF TREATING GOUT” (Horizon Therapeutics USA, Inc., priority 2020, published 2023).
Read-outs that look alike come from different tables or passages of the source. Values belong to the molecule of their own block, whether it stands above or below them.

How the values were obtained:
patients with gout = details: patients treated with allopurinol
[1] = test system: patients with refractory chronic gout; details: Phase 2 program
[2] = single IV infusions of 0.5 mg to 12 mg; 23 patients with symptomatic gout
subjects with gout = details: Phase 2, 30-min administration in the majority
[3] = test system: patients with refractory chronic gout; details: bi-weekly or every 4 weeks for up to 30 months
[4] = test system: patients receiving pegloticase
[5] = 2 hemodialysis sessions; pre- and post-dialyzer samples
vacuolated cells = details: no associated clinical manifestations
[6] = test system: subjects with refractory gout; details: doses of 4 to 12 mg; from 11.1±0.6 mg/dL
[7] = rat; during 7 days after injection
[8] = test system: hyperuricemic patients with symptomatic gout

- patients developing allergic reactions (patients with gout): Approximately 2%
Molecule: Oc1ncnc2[nH]ncc12 [allopurinol]

Molecule: pegloticase
- dose-response plateau dose [1]: 12 mg
- minimally effective dose [1]: 4 mg
- safe and optimally effective dose [1]: 8 mg
- maximum serum concentrations vs dose [2]: increased in proportion to the dose administered
- anaphylaxis (subjects with gout): no subjects experienced anaphylaxis
- subjects experiencing an IR (subjects with gout; no MTX, majority without IR prophylaxis): 44%
- long-term safety [3]: No new safety signals were observed
- stability diluted in infusion bags (2° C. to 8° C.): 4 h
- stability diluted in infusion bags (room temperature (20° C. to 25° C.)): 4 h
- patients with antibody titer exceeding 1:2430 maintaining response ([4]; 7 of 65, another study): 10.8%
- patients with titers exceeding 1:2430 developing IRs ([4]; 31 of 52): 60%
- patients never having antibody titer above 1:2430 maintaining response ([4]; 58/65, another study): 89.2%
- participants with high titers developing IR ([4]; second study): 60%
- removal by dialysis [5]: not removed by the dialysis process
- finding in chronic toxicology studies (vacuolated cells): dose-dependent increase in vacuolated cells
- pUAc after fall, mean±SD [6]: 1.0±0.5 mg/dL
- dose excreted in the urine [7]: Approximately 70%
- subjects with infusion reactions (IRs) ([8]; 8 mg every 2 weeks, Phase 3, 120-min infusion, IR prophylaxis, no pre-infusion uric acid monitoring): 26%
- subjects with infusion-related reactions ([8]; 8 mg every 4 weeks, Phase 3): 40%
- patients maintaining therapeutic response ([8]; 6 months, pegloticase alone, previously reported): 42%
- patients with IRs in whom loss of response (SUA≥6 mg/dL) preceded the first IR ([8]; 20/21 patients): 95%
- subjects with anaphylaxis ([8]; Phase 3, 120-min infusion, IR prophylaxis): 5%
- IR rate ([8]; clinical practice/studies with a uric acid monitoring protocol): about 8%
